Test results taken from PMC11764377.

Key:
[1] = biological target: Allochromatium tepidum LH1 α1β1 heterodimer subunit (of the Ca2+-bound LH1-α1β1 complex) (Allochromatium tepidum); test: cryo-EM structure; LH1-only complex co-expressed in Rsp. rubrum H2 and purified in β-DDM, ~5 mg/mL; C14 symmetry applied; closed ring of 14 αβ-heterodimers
[2] = biological target: Allochromatium tepidum LH1 α2β1 heterodimer subunit (of the Ca2+-free LH1-α2β1 complex) (Allochromatium tepidum); test: as above

For “Allochromatium tepidum LH1 α1β1 heterodimer subunit (of the Ca2+-bound LH1-α1β1 complex)”, the stoichiometry N [1] was 14.

“Allochromatium tepidum LH1 α2β1 heterodimer subunit (of the Ca2+-free LH1-α2β1 complex)” gave a stoichiometry N [2] of 14.
